Results reported in publication doi:10.1101/2021.08.17.456605.

Tests used:
[1] = target: Heimdallarchaeota AB125 Vps22 (HeimAB125_14050) (Heimdallarchaeota AB125); experiment: cross-linking
[2] = target: Heimdallarchaeota AB125 Vps22 (HeimAB125_14050) (Heimdallarchaeota AB125); experiment: SEC-MALS
[3] = target: Odinarchaeota LCB_4 Vps23(TSG101) (Odinarchaeota archaeon LCB_4); experiment: SEC-MALS

Substance: Heimdallarchaeota AB125 Vps22 (HeimAB125_14050) (natural protein)
- stoichiometry N [1]: 2
- stoichiometry N [2]: 2

Substance: Odinarchaeota LCB_4 Vps23(TSG101) (natural protein)
- stoichiometry N [3]: 2

Substance: Odinarchaeota LCB_4 Vps28 (natural protein)
- stoichiometry N (Vps28 per Vps23 dimer) [3]: 1
